Results as given in patent EP2105446A2 (ZymoGenetics, Inc., dated 2009).

Experiments:
[1] = target: factor present in the activated CD3+ selected human T-cell conditioned media (human); assay: cell-based or functional assay
[2] = target: factor present in the activated monkey spleen conditioned media (monkey); assay: cell-based or functional assay

B1: zalpha11CFLG soluble receptor (zalpha11 extracellular domain with C-terminal FLAG tag) (receptor)
chain: not shown
For B1, the “inhibition of BaF3/Zalpha11 cell growth (Alamar Blue), concentration giving complete inhibition” value (from here on “inhibition of BaF3/Zalpha11 cell growth”) [1] was 10 µg/mL, the “titration of soluble receptor, lowest concentration giving complete inhibition of BaF3/Zalpha11 growth” value [1] was 20 ng/mL and the “inhibition of BaF3/Zalpha11 cell growth” value [2] was 10 µg/mL. The “titration of soluble receptor, lowest concentration giving complete inhibition of BaF3/Zalpha11 growth” value [2] was 20 ng/mL.

B2: zalpha11CEE soluble receptor (zalpha11 extracellular domain with C-terminal Glu-Glu tag) (receptor)
chain: not shown
B2 was tested, and the “inhibition of BaF3/Zalpha11 cell growth” value [1] was 10 µg/mL, the “titration of soluble receptor, lowest concentration giving complete inhibition of BaF3/Zalpha11 growth” value [1] was 20 ng/mL and the “inhibition of BaF3/Zalpha11 cell growth” value [2] was 10 µg/mL. The “titration of soluble receptor, lowest concentration giving complete inhibition of BaF3/Zalpha11 growth” value [2] was 20 ng/mL.
